Measured values published in the emibetuzumab library of Makowski et al. (2022).

B1: VH:VL chains; a variant is named by its letters at X, in order (parent)
chain 1: QVQLVQSGAEVKKPGASVKVSCKASGYTFTDYXMHWVRQAPGQGLEWMGXVNPNXXXTTYNQKFEGRVTMTTDTSTSTAYMELRSLRSDDTAVYYCARXNXLDXWGQGTTVTVSS
chain 2: DIQMTQSPSSLSASVGDRVTITCSVSSSVSSIYLHWYQQKPGKAPKLLIYSTSNLASGVPSRFSGSGSGTDFTLTISSLQPEDFATYYCQVYSGYPLTFGGGTKVEIK

Variants of: B1
Test: yeast display scFab, FACS + sequencing
Method in brief: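 Heavy-chain CDR mutant scFab yeast surface library, FACS-sorted after labelling with biotinylated ovalbumin (260 μg/mL in PBSB, 3 h, room temperature) or soluble membrane proteins (130 μg/mL, 20 min on ice), plus anti-Myc. Gates collected the top 25% and bottom 10% of binders, and samples from two replicates were deep sequenced. Non-specific binding call: a sequence was positive if found in ≥3 of 4 positive samples (membrane protein and ovalbumin pooled) and no negatives, and negative by the converse rule.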

| Variant | non-specific binding call |
| --- | --- |
| YKKGAAGF | binds |
| FKKGDAVS | binds |
| SKKGDFWV | binds |
| YKKGGSGV | binds |
| YKKGGSLA | binds |
| YKKGGSLD | binds |
| FKKGSAAV | binds |
| FKKGSAVA | binds |
| FKKGSAVV | binds |
| FKKGSFGA | binds |
| FKKGSSAA | binds |
| FKKGSSGD | binds |
| FKKGSSGV | binds |
| FKKGSSLD | binds |
| YKKGSSLF | binds |
| VKKGSSLF | binds |
| FKKGSSWD | binds |
| FKKGSVGD | binds |
| FKKGSYVF | binds |
| FKKKDASV | binds |
| DKKKDVVF | binds |
| SKKRGAAA | binds |
| YKKRGAGV | binds |
| SKKRGASA | binds |
| SKKRGAWA | binds |

| Variant | non-specific binding call |
| --- | --- |
| VKKRGAWS | binds |
| FKKRGAWS | binds |
| AKKRGAWS | binds |
| YKKRGAWS | binds |
| SKKRGAWY | binds |
| SKKRGSGA | binds |
| SKKRGSWD | binds |
| SKKTGDLY | no binding |
| YKKTGDLY | no binding |
| VKKTGDLY | no binding |
| VKKTGSGA | binds |
| SKKTGSVD | no binding |
| YKKTGYWV | binds |
| YKRAAVWD | binds |
| YKRAAYGD | binds |
| FKRAGSLA | binds |
| VKRATSWD | binds |
| VKRATVLA | binds |
| DKREADGA | no binding |
| DKREADVA | no binding |
| VKREASVV | binds |
| VKREAVGV | binds |
| YKREGSAV | no binding |
| YKRESAAV | binds |
| YKRESAGY | binds |

| Variant | non-specific binding call |
| --- | --- |
| YKRESSSV | binds |
| SKRETAWS | binds |
| YKRGAAGD | binds |
| YKRGAAWS | binds |
| AKRGAFAD | binds |
| YKRGASLA | binds |
| YKRGASVA | binds |
| FKRGDAGD | binds |
| YKRGDAGY | no binding |
| YKRGDASS | no binding |
| YKRGDAVF | no binding |
| YKRGDAWA | no binding |
| YKRGDAWD | no binding |
| YKRGDDGD | no binding |
| YKRGDDLV | no binding |
| YKRGDDSS | no binding |
| VKRGDDVA | no binding |
| VKRGDDVV | no binding |
| YKRGDSGF | no binding |
| YKRGDSSS | no binding |
| YKRGGAAA | binds |
| YKRGGAGS | binds |
| YKRGGAVV | binds |
| YKRGGSGD | binds |
| YKRGGSSY | no binding |

| Variant | non-specific binding call |
| --- | --- |
| YKRGGSWD | binds |
| VKRGSAAA | binds |
| YKRGSAAA | binds |
| VKRGSAAV | binds |
| AKRGSAAV | binds |
| YKRGSAGD | binds |
| YKRGSAGF | binds |
| YKRGSASD | binds |
| YKRGSASV | binds |
| YKRGSAVD | binds |
| YKRGSAWD | binds |
| YKRGSAWV | binds |
| YKRGSDGA | binds |
| YKRGSFGA | binds |
| VKRGSFVD | binds |
| YKRGSFVD | binds |
| FKRGSSAA | binds |
| VKRGSSAA | binds |
| VKRGSSGA | binds |
| YKRGSSGA | binds |
| VKRGSSGD | binds |
| YKRGSSGD | binds |
| YKRGSSGF | binds |
| FKRGSSLD | binds |
| VKRGSSLF | binds |

| Variant | non-specific binding call |
| --- | --- |
| FKRGSSLF | binds |
| VKRGSSSD | binds |
| YKRGSSSD | binds |
| YKRGSSSY | binds |
| FKRGSSSY | binds |
| YKRGSSVD | binds |
| VKRGSSVD | binds |
| YKRGSSVS | binds |
| YKRGSSVV | binds |
| YKRGSSWD | binds |
| FKRKAAAA | binds |
| DKRKGVAF | binds |
| DKRKGVSD chain 1 S88F | binds |
| FKRKNSAA | binds |
| YKRKSASD | binds |
| SKRKSSGA | binds |
| SKRKSSSD | binds |
| YKRRDASD | binds |
| YKRRDAVY | binds |
| YKRRDAWV | binds |
| YKRRDFGV | binds |
| VKRRDSGD | binds |
| YKRRDSVD | binds |
| FKRRDSVY | binds |
| YKRRGSAA | binds |

| Variant | non-specific binding call |
| --- | --- |
| SKRRGSLS | binds |
| YKRRNSGD | binds |
| YKRRSASA | binds |
| FKRRSASV | binds |
| FKRRSFGS | binds |
| FKRRSSGD | binds |
| VKRRSSLA | binds |
| YKRRSSVF | binds |
| SKRRSVGA | binds |
| FKRRSVGA | binds |
| VKRRSVGA | binds |
| FKTAGSAV chain 1 R67H | binds |
| FKTEGFVS | binds |
| FKTESAAV | binds |
| YKTESYWY | binds |
| DKTGDAAV | no binding |
| FKTGDAWS | binds |
| DKTGDDGS | no binding |
| YKTGDDGV | no binding |
| DKTGDDVF | no binding |
| DKTGDSAD | no binding |
| AKTGDSSD | no binding |
| YKTGDSVD | no binding |
| YKTGDSWV | no binding |
| FKTGGAAV | binds |

| Variant | non-specific binding call |
| --- | --- |
| VKTGGAGA | no binding |
| YKTGGAGV | binds |
| YKTGGALY | no binding |
| YKTGGASS | binds |
| VKTGGAVV | no binding |
| VKTGGAWY | no binding |
| VKTGGDGD | no binding |
| YKTGGDGV | no binding |
| VKTGGDVA | no binding |
| VKTGGDVF | no binding |
| VKTGGDVY | no binding |
| YKTGGSGA | binds |
| VKTGGSLD | no binding |
| VKTGGSWA | no binding |
| VKTGGSWV | no binding |
| DKTGNDVA | no binding |
| YKTGNDVA | no binding |
| AKTGNDVA | no binding |
| DKTGNDVV | no binding |
| YKTGSSWD | binds |
| FKTKDSVV | binds |
| DKTKGDWV | no binding |
| YKTKGSSY | binds |
| VKTKGVVD | binds |
| FKTKNYAD | binds |

| Variant | non-specific binding call |
| --- | --- |
| FKTKNYVV | binds |
| FKTKSAGD | no binding |
| SKTKSDAV | no binding |
| FKTKSDAV | no binding |
| SKTKSDGA | no binding |
| SKTKSDGS | no binding |
| SKTKSDGV | no binding |
| AKTKSDGV | no binding |
| YKTKSDGV | no binding |
| SKTKSDVA | no binding |
| AKTKSDVA | no binding |
| SKTKSDVD | no binding |
| SKTKSDVV | no binding |
| SKTKSDWA | no binding |
| YKTKSDWV | no binding |
| DKTKSDWV | no binding |
| AKTKSDWV | no binding |
| SKTKSSAS | no binding |
| SKTKSSGA | no binding |
| SKTKSSSA | no binding |
| SKTRAFVA | binds |
| YKTRDDAV | no binding |
| AKTRDDVA | no binding |
| FKTRDFAY | binds |
| AKTRDFVA | binds |

| Variant | non-specific binding call |
| --- | --- |
| YKTRGAGD chain 1 Q43R | no binding |
| SKTRGAGV | binds |
| YKTRGAVS | binds |
| SKTRGAWD | binds |
| YKTRGFGA | binds |
| YKTRGSAA | binds |
| YKTRGSAD | binds |
| YKTRGSLD | binds |
| YKTRSAVA | binds |
| YKTRSAWS chain 1 M48I | binds |
| YKTRSSAD | binds |
| YMAEGSGA | binds |
| YRAAGAGS | binds |
| YRAAGDVA | no binding |
| ARAAGDVF | no binding |
| ARAAGDWV | no binding |
| YRAAGSGA | binds |
| YRAAGSWS | binds |
| ARAASAGA | binds |
| VRAEASVV | binds |
| YRAEGALD | binds |
| YRAEGAWS | binds |
| FRAEGSLD | binds |
| YRAEGSSS | binds |
| VRAEGSSV | no binding |

| Variant | non-specific binding call |
| --- | --- |
| FRAEGSVA | binds |
| VRAEGSVA | binds |
| YRAEGYVV | binds |
| YRAESAAA | binds |
| YRAESSGV | binds |
| YRAETDGV | no binding |
| YRAETDVA | no binding |
| VRAETDVY | no binding |
| ARAETDVY | no binding |
| DRAETDVY | no binding |
| VRAGAAGS | no binding |
| VRAGAAGV | binds |
| YRAGAASD | binds |
| YRAGAAVA | binds |
| VRAGADAV | no binding |
| VRAGADGV | no binding |
| VRAGADSV | no binding |
| VRAGADVA | no binding |
| VRAGADVD | no binding |
